B1: I-383 (peptide)
peptide: XDAXDEAAFVXXXQ
modifications: not fully specified; N-terminal Ac; PL3 at 1, B5 at 4, S8 at 11 (staples 1-4 and 4-11 by olefin metathesis); 2pyrA at 12; BztA at 13; C-terminal NH2

Starred links: 1 amine or outer side, 2 acyl side, 3 side chain; linkers in the order of their positions; H or OH if unused. Positions of bridges follow the written chain, without caps; N, C: chain ends. Non-standard residues stand in square brackets, D forms with d. Primed or numbered codes have the meaning given here. PyrS2″ = (S)-3-amino-1-((pent-4-en-1-yloxy)carbonyl)pyrrolidine-3-carboxylic acid (stapling residue), C=CCCCOC(=O)N1CC[C@@](N[*:1])(C(=O)[*:2])C1; B5(16) = 2-amino-2-(pent-4-en-1-yl)hept-6-enoic acid = 2,2-bis(4-pentenyl)glycine (stitching residue), C=CCCCC(CCCC=C)(N[*:1])C(=O)[*:2]; B5(4) = 2,2-bis(4-pentenyl)glycine = 2-amino-2-(pent-4-en-1-yl)hept-6-enoic acid (stitching residue), C=CCCCC(CCCC=C)(N[*:1])C(=O)[*:2]; B5(5) = 2,2-bis(4-pentenyl)glycine, 2-amino-2-(pent-4-en-1-yl)hept-6-enoic acid (stitching residue), C=CCCCC(CCCC=C)(N[*:1])C(=O)[*:2]; TfeGA = (S)-2-amino-3-((carboxymethyl)(2,2,2-trifluoroethyl)amino)propanoic acid, O=C([C@H](CN(CC(=O)[*:3])CC(F)(F)F)N[*:1])[*:2]; PyrS2 = (S)-3-amino-1-((pent-4-en-1-yloxy)carbonyl)pyrrolidine-3-carboxylic acid, C=CCCCOC(=O)N1CC[C@@](N[*:1])(C(=O)[*:2])C1; B5(27) = 2-amino-2-(pent-4-en-1-yl)hept-6-enoic acid (two alkene side-chain arms), C=CCCCC(CCCC=C)(N[*:1])C(=O)[*:2]; MePpzAsn = (S)-2-amino-4-(4-methylpiperazin-1-yl)-4-oxobutanoic acid, CN1CCN(C(=O)C[C@H](N[*:1])C(=O)[*:2])CC1; MorphAsn = (S)-2-amino-4-morpholino-4-oxobutanoic acid, O=C(C[C@H](N[*:1])C(=O)[*:2])N1CCOCC1; AspSH = (S)-2-amino-4-mercapto-4-oxobutanoic acid, O=C(C[C@H](N[*:1])C(=O)[*:2])S[*:3]; B5 = 2-amino-2-(pent-4-en-1-yl)hept-6-enoic acid, C=CCCCC(CCCC=C)(N[*:1])C(=O)[*:2]; Phe(3-CONH2) = NC(=O)c1cccc(C[C@H](N)C(=O)O)c1; Phe(4-CONH2) = NC(=O)c1ccc(C[C@H](N)C(=O)O)cc1; Phe(2-CONH2) = NC(=O)c1ccccc1C[C@H](N)C(=O)O; Phe(2-Cl) = N[C@@H](Cc1ccccc1Cl)C(=O)O; Bta = N[C@@H](Cc1csc2ccccc12)C(=O)O; Lys(iPr) = CC(C)NCCCC[C@H](N)C(=O)O; αAllylPro = C=CC[C@@]1(C(=O)O)CCCN1; tBuAla = CC(C)(C)C[C@H](N)C(=O)O; 3Thi = N[C@@H](Cc1ccsc1)C(=O)O; Cha = N[C@@H](CC1CCCCC1)C(=O)O; S8 = C=CCCCCCC[C@](C)(N)C(=O)O; TfeGA″ = not defined here; hSer = N[C@@H](CCO)C(=O)O; Nle = CCCC[C@H](N)C(=O)O

A word on the IC50: it is the midpoint of a concentration-inhibition curve.

The target of one assay is full-length beta-Catenin (Uniprot ID P35222) (Homo sapiens (Human)) (UniProt P35222). Put plainly: fluorescence polarization competition; displacement of 5FAM-TCF4(10-53) from full-length beta-catenin. (In fluorescence polarisation assays a small probe gives low polarisation when free and higher when bound to something large.)
Target sequence in this assay (P35222 whole entry): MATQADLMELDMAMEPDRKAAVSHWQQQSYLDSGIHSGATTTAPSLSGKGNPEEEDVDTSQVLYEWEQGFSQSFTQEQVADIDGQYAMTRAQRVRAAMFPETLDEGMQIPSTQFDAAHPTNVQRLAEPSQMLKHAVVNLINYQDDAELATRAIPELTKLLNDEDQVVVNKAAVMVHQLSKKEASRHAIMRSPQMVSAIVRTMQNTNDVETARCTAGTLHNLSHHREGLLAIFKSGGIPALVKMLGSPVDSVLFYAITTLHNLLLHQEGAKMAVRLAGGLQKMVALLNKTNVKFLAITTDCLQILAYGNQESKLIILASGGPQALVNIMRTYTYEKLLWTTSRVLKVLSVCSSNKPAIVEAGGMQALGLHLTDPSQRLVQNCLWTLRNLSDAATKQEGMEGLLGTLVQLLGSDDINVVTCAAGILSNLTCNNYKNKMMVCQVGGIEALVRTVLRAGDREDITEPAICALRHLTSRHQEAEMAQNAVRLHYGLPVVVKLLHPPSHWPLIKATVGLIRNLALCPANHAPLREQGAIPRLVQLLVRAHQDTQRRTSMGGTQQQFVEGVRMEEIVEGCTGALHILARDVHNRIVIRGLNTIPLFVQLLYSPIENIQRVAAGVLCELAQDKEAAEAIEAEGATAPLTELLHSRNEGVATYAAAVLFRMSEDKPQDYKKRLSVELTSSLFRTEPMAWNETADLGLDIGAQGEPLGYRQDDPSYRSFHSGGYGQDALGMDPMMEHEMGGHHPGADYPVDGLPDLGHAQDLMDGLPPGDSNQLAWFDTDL
With Ac-[αAllylPro]DS[B5(4)]DDAAFL[PyrS2″][3Thi][Bta][hSer]-NH2 (staple 1-4, 4-11) [I-1514: Ac-PL3-Asp-Ser-B5-Asp-Asp-Ala-Ala-Phe-Leu-PyrS2-3Thi-BztA-Hse-NH2], the IC50 amounted to 27 nM.
Ac-[αAllylPro]D[tBuAla][B5(4)]DDA[MePpzAsn]FL[PyrS2][3Thi][Bta]Q-NH2 (staple 1-4, 4-11) [I-1508: Ac-PL3-Asp-Npg-B5-Asp-Asp-Ala-MePpzAsn-Phe-Leu-PyrS2-3Thi-BztA-Gln-NH2] registered an IC50 of 87 nM.
As for Ac-[αAllylPro]DY[B5(5)]DDAAFL[PyrS2″][3Thi][Bta][hSer]-NH2 (staple 1-4, 4-11) [I-1512: Ac-PL3-Asp-Tyr-B5-Asp-Asp-Ala-Ala-Phe-Leu-PyrS2-3Thi-BztA-Hse-NH2], the IC50 was 12 nM.
Take Ac-[αAllylPro]DY[B5(27)]DDAAFL[PyrS2][3Thi][Bta]Q-NH2 (staple 1-4, 4-11) [I-1511: Ac-PL3-Asp-Tyr-B5-Asp-Asp-Ala-Ala-Phe-Leu-PyrS2-3Thi-BztA-Gln-NH2]: the IC50 came out at 5 nM.
As to Ac-[αAllylPro]D[Nle][B5(5)]DEAAFL[S8]F[Bta]Q-NH2 (staple 1-4, 4-11) [I-1523: Ac-PL3-Asp-nLeu-B5-Asp-Glu-Ala-Ala-Phe-Leu-S8-Phe-BztA-Gln-NH2], the IC50 turned out to be 29 nM.
Ac-[αAllylPro]D[Nle][B5(5)]DEAAF[hSer][S8]F[Bta]Q-NH2 (staple 1-4, 4-11) [I-1525: Ac-PL3-Asp-nLeu-B5-Asp-Glu-Ala-Ala-Phe-Hse-S8-Phe-BztA-Gln-NH2] came in with an IC50 of 22 nM.
For the molecule Ac-[αAllylPro]DN[B5(5)]DDAAFL[PyrS2″][3Thi][Bta]Q-NH2 (staple 1-4, 4-11) [I-1517: Ac-PL3-Asp-Asn-B5-Asp-Asp-Ala-Ala-Phe-Leu-PyrS2-3Thi-BztA-Gln-NH2], the IC50 came out at 32 nM.
Ac-[αAllylPro]DN[B5(5)]DDAAFL[PyrS2″][3Thi][Bta][hSer]-NH2 (staple 1-4, 4-11) [I-1518: Ac-PL3-Asp-Asn-B5-Asp-Asp-Ala-Ala-Phe-Leu-PyrS2-3Thi-BztA-Hse-NH2]: the IC50 turned out to be 23 nM.
For the molecule Ac-[αAllylPro]DF[B5(27)]DDAAFL[PyrS2][3Thi][Bta][hSer]-NH2 (staple 1-4, 4-11) [I-1510: Ac-PL3-Asp-Phe-B5-Asp-Asp-Ala-Ala-Phe-Leu-PyrS2-3Thi-BztA-Hse-NH2], the IC50 was found to be 10 nM.
Ac-[αAllylPro]D[Nle][B5(5)]DEAAFQ[S8]F[Bta]Q-NH2 (staple 1-4, 4-11; also: staple isomer, earlier eluting HPLC peak) [I-1521: Ac-PL3-Asp-nLeu-B5-Asp-Glu-Ala-Ala-Phe-Gln-S8-Phe-BztA-Gln-NH2] yielded an IC50 of 16 nM.
Same read-out and setting: the same measure for Ac-[αAllylPro]D[Nle][B5(5)]DEAAF[hSer][S8]F[Bta]Q-NH2 (staple 1-4, 4-11; also: staple isomer, earlier eluting HPLC peak) [I-1524: Ac-PL3-Asp-nLeu-B5-Asp-Glu-Ala-Ala-Phe-Hse-S8-Phe-BztA-Gln-NH2]: 17 nM; for Ac-[αAllylPro]D[tBuAla][B5(27)]DDA[MorphAsn]FL[PyrS2][3Thi][Bta]Q-NH2 (staple 1-4, 4-11) [I-1507: Ac-PL3-Asp-Npg-B5-Asp-Asp-Ala-MorphAsn-Phe-Leu-PyrS2-3Thi-BztA-Gln-NH2]: 30 nM.
As for Ac-[αAllylPro]DT[B5(5)]DDAAFL[PyrS2″][3Thi][Bta]Q-NH2 (staple 1-4, 4-11) [I-1515: Ac-PL3-Asp-Thr-B5-Asp-Asp-Ala-Ala-Phe-Leu-PyrS2-3Thi-BztA-Gln-NH2], the IC50 amounted to 24 nM.
Take Ac-[αAllylPro]DT[B5(5)]DDAAFL[PyrS2″][3Thi][Bta][hSer]-NH2 (staple 1-4, 4-11) [I-1516: Ac-PL3-Asp-Thr-B5-Asp-Asp-Ala-Ala-Phe-Leu-PyrS2-3Thi-BztA-Hse-NH2]: the IC50 was determined as 30 nM.
Consider Ac-[αAllylPro]D[Nle][B5(5)]DEAAFQ[S8]F[Bta]Q-NH2 (staple 1-4, 4-11) [I-1522: Ac-PL3-Asp-nLeu-B5-Asp-Glu-Ala-Ala-Phe-Gln-S8-Phe-BztA-Gln-NH2], for which the IC50 stood at 6 nM.
Molecule Ac-[αAllylPro]DS[B5(5)]DDAAFL[PyrS2″][3Thi][Bta]Q-NH2 (staple 1-4, 4-11) [I-1513: Ac-PL3-Asp-Ser-B5-Asp-Asp-Ala-Ala-Phe-Leu-PyrS2-3Thi-BztA-Gln-NH2] yielded an IC50 of 21 nM.

For the next assay the target is unchanged. Put plainly: fluorescence polarization competition; peptide titrated against 10 nM full-length beta-catenin + 10 nM 5FAM-TCF4(10-53).
As for Ac-[αAllylPro]D[tBuAla][B5(5)]D[TfeGA]AAFL[PyrS2″][3Thi][Bta][Phe(2-CONH2)]-NH2 (staple 1-4, 4-11; also: staples hydrogenated: -CH=CH- reduced to -CH2-CH2-) [I-1717], the IC50 came to 249 nM.
Ac-[αAllylPro]N[Cha][B5(5)]DQ[Lys(iPr)]AFL[PyrS2″]F[Bta][hSer]-NH2 (staple 1-4, 4-11) [I-2165]: the IC50 was 441 nM.
In the case of Ac-[αAllylPro]N[Cha][B5(5)]DQ[Lys(iPr)]AFL[PyrS2″][Phe(3-CONH2)][Bta]Q-NH2 (staple 1-4, 4-11) [I-2163], the IC50 turned out to be 3720 nM.
On the same count and under the same terms, the same measure for Ac-[αAllylPro]D[tBuAla][B5(4)]D[TfeGA]AAFL[PyrS2″][3Thi][Bta][Phe(2-CONH2)]-NH2 (staple 1-4, 4-11) [I-1707]: 19 nM.
As for Ac-[αAllylPro]N[Cha][B5(5)]DQ[Lys(iPr)]A[Phe(4-CONH2)]N[PyrS2″]F[Bta][hSer]-NH2 (staple 1-4, 4-11) [I-2174], the IC50 was determined as 10000 nM.
Regarding Ac-[αAllylPro]D[tBuAla][B5(4)]D[TfeGA]AAFL[PyrS2″][3Thi][Bta]N-NH2 (staple 1-4, 4-11; also: -CH=CH- in each staple reduced to -CH2-CH2-) [I-1715], the IC50 was found to be 95 nM.
For Ac-[αAllylPro]N[Cha][B5(5)]DQ[Lys(iPr)]AFN[PyrS2″]Q[Bta][hSer]-NH2 (staple 1-4, 4-11) [I-2171], the 50% inhibitory concentration (IC50) worked out at 10000 nM.
For Ac-[αAllylPro]D[tBuAla][B5(4)]D[TfeGA]AAFL[PyrS2″][3Thi][Bta][Phe(3-CONH2)]-NH2 (staple 1-4, 4-11) [I-1708], the IC50 came out at 29 nM.
Regarding Ac-[αAllylPro]N[Cha][B5(4)]DQ[Lys(iPr)]AFN[PyrS2″][Phe(2-CONH2)][Bta][hSer]-NH2 (staple 1-4, 4-11) [I-2168], the IC50 was 212 nM.
As for Ac-[αAllylPro]D[tBuAla][B5(16)]D[TfeGA]AAFL[PyrS2″][3Thi][Bta]N-NH2 (staple 1-4, 4-11) [I-1705], the IC50 was 9 nM.
For the molecule Ac-[αAllylPro]D[tBuAla][B5(5)]D[TfeGA]AAFL[PyrS2″][3Thi][Bta][Phe(3-CONH2)]-NH2 (staple 1-4, 4-11; also: staples hydrogenated: -CH=CH- reduced to -CH2-CH2-) [I-1718], the IC50 worked out at 382 nM.
As to Ac-[αAllylPro]N[Cha][B5(5)]DQ[Lys(iPr)]AFN[PyrS2″][Phe(3-CONH2)][Bta]Q-NH2 (staple 1-4, 4-11) [I-2164], the IC50 was found to be 1180 nM.
With Ac-[αAllylPro]D[tBuAla][B5(4)]D[TfeGA″]AAFL[PyrS2″][3Thi][Bta]T-NH2 (staple 1-4, 4-11; reading uncertain) [I-1706], the IC50 worked out at 24 nM.
Same read-out and setting: the same measure for Ac-[αAllylPro]N[Cha][B5(5)]DQ[Lys(iPr)]A[Phe(2-CONH2)]N[PyrS2″]F[Bta][hSer]-NH2 (staple 1-4, 4-11) [I-2173]: 3070 nM; for B1: 5000 nM; for Ac-[αAllylPro]D[tBuAla][B5(4)]D[TfeGA]AAFL[PyrS2″][3Thi][Bta]T-NH2 (staple 1-4, 4-11; also: -CH=CH- in each staple reduced to -CH2-CH2-) [I-1716]: 224 nM.
Consider Ac-[αAllylPro]N[Cha][B5(5)]DQ[Lys(iPr)]AFN[PyrS2″]Y[Bta][hSer]-NH2 (staple 1-4, 4-11) [I-2172], for which the IC50 stood at 10000 nM.
For the molecule Ac-[αAllylPro][AspSH][tBuAla][B5]DDAAFN[PyrS2][Phe(2-Cl)][Bta]Q-NH2 (staple 1-4, 4-11; not fully specified) [I-1721], the IC50 was found to be 139 nM.
Turning to Ac-[αAllylPro]N[Cha][B5(5)]DQ[Lys(iPr)]AFL[PyrS2″][Phe(3-CONH2)][Bta][hSer]-NH2 (staple 1-4, 4-11) [I-2166], the IC50 was found to be 1590 nM.
As to Ac-[αAllylPro]N[Cha][B5(5)]DQ[Lys(iPr)]AFN[PyrS2″][Phe(4-CONH2)][Bta][hSer]-NH2 (staple 1-4, 4-11) [I-2169], the IC50 is 10000 nM.
For Ac-[αAllylPro]N[Cha][B5(5)]DQ[Lys(iPr)]AFN[PyrS2″]N[Bta][hSer]-NH2 (staple 1-4, 4-11) [I-2170], the IC50 was found to be 10000 nM.
As for Ac-[αAllylPro]N[Cha][B5(4)]DQ[Lys(iPr)]AFN[PyrS2″]F[Bta][hSer]-NH2 (staple 1-4, 4-11) [I-2167], the IC50 turned out to be 199 nM.

The values are drawn from patent US20240116985A1, “STAPLED PEPTIDES AND METHODS THEREOF” (priority 2020, published 2024).
